Reference: PMC4856418, “Inactive mutants of human pyridoxine 5′‐phosphate oxidase: a possible role for a noncatalytic pyridoxal 5′‐phosphate tight binding site” (FEBS Open Bio, 2016)

Tests used:
Assay in all cases: fluorescence polarisation; 1 μM FMI-labeled hPNPO in a 96-well plate, B6 enzymes added at 0 to 20 μM, incubated at 25 °C for 5 h; excitation 495 nm, emission 535 nm; curves fitted to a simple 1:1 model
Conditions in all cases: both partners purified
[1] = biological target: T1, E. coli serine hydroxymethyltransferase (eSHMT) (E. coli, UniProt P0A825 1-417)
T1 construct: E. coli serine hydroxymethyltransferase; also called E. coli SHMT
T1 sequence (looked up): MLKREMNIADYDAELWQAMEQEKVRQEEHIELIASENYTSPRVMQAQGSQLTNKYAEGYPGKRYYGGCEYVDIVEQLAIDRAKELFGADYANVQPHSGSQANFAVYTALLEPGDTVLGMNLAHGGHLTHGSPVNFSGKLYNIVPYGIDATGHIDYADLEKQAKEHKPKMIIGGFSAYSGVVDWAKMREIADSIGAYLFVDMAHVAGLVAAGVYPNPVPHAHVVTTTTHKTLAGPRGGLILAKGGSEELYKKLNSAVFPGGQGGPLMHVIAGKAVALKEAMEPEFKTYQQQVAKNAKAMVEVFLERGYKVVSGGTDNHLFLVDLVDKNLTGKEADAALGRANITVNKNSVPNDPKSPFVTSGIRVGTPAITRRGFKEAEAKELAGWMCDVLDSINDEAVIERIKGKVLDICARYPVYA

[2] = biological target: T2, rabbit cytosolic serine hydroxymethyltransferase (rcSHMT) (rabbit, UniProt P07511 1-484)
T2 construct: rabbit cytosolic serine hydroxymethyltransferase; In the PLP transfer experiments the apo form (PLP removed with D-alanine) was used; the fluorescence polarization text names rcSHMT without saying apo or holo; also called apo-rcSHMT; apo-SHMT
T2 sequence (looked up): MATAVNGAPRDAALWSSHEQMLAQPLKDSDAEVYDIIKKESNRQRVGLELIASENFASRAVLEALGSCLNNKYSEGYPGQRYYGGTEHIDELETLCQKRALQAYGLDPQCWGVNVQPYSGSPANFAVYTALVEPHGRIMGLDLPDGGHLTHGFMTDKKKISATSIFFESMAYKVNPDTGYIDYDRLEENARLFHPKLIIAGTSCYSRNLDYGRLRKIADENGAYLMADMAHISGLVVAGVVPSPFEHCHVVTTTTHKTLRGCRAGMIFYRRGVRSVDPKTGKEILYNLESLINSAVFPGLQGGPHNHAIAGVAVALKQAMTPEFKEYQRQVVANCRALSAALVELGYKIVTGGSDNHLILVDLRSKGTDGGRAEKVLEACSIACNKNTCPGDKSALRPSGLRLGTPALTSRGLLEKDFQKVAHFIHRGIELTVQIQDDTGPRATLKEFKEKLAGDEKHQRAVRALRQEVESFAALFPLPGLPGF

[3] = biological target: T3, E. coli L-threonine aldolase (eL-TA) (E. coli, UniProt P75823 1-333)
T3 construct: E. coli L-threonine aldolase
T3 sequence (looked up): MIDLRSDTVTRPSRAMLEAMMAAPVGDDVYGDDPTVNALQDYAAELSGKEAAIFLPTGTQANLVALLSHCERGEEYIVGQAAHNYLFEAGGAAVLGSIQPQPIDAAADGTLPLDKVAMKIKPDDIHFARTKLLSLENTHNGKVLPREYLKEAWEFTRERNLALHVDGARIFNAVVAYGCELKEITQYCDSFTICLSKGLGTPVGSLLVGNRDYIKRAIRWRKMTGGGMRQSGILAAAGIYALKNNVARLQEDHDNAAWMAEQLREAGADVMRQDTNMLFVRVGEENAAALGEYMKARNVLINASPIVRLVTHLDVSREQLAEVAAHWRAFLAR

[4] = biological target: T4, E. coli aspartate aminotransferase (eAATase) (E. coli, UniProt P00509 1-396)
T4 construct: E. coli aspartate aminotransferase
T4 sequence (looked up): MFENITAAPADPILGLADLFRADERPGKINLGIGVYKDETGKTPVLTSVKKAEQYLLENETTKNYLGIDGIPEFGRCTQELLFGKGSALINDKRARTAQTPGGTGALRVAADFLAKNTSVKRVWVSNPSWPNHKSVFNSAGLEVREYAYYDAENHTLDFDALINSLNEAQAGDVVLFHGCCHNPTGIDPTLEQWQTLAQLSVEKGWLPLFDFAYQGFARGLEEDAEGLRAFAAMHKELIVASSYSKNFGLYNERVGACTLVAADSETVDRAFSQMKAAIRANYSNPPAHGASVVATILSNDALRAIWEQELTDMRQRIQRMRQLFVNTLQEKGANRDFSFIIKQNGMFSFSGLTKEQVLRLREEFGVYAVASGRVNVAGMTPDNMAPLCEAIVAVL

Kd [1]: 1700 nM | Kd [2]: 800 nM | Kd [3]: 12300 nM | Kd [4]: 300 nM
B1: wild-type human pyridoxine 5′-phosphate oxidase (hPNPO) (enzyme)
chain: MTCWLRGVTATFGRPAEWPGYLSHLCGRSAAMDLGPMRKSYRGDREAFEETHLTSLDPVKQFAAWFEEAVQCPDIGEANAMCLATCTRDGKPSARMLLLKGFGKDGFRFFTNFESRKGKELDSNPFASLVFYWEPLNRQVRVEGPVKKLPEEEAECYFHSRPKSSQIGAVVSHQSSVIPDREYLRKKNEELEQLYQDQEVPKPKSWGGYVLYPQVMEFWQGQTNRLHDRIVFRRGLPTGDSPLGPMTHRGEEDWLYERLAP
modifications: labelled with fluorescein 5-maleimide (FMI) in the fluorescence polarization assay; labelled residues not stated
notes: human pyridoxine 5′-phosphate oxidase, wild type; FMI-labelled in the fluorescence polarization assay; also called FMI-labeled hPNPO; FMI-tagged hPNPO
